PMC9122595

B1: CDC6 probe (dsDNA)
DNA 1: CGCTCCCCGGCCATCTTGGCGGCTGGT
DNA 2: ACCAGCCGCCAAGATGGCCGGGGAGCG
B2: S2 (dsDNA)
DNA 1: GGGCACAGACATTTTAATCA
DNA 2: TGATTAAAATGTCTGTGCCC
B3: S3 (dsDNA)
DNA 1: CTTGTCTGCCATTGTATCTT
DNA 2: AAGATACAATGGCAGACAAG
B4: S4 (dsDNA)
DNA 1: TGGTGCCGACATTTTTTTTC
DNA 2: GAAAAAAAATGTCGGCACCA
B5: S5 (dsDNA)
DNA 1: GCTTTCTTCCATCTTGAAAA
DNA 2: TTTTCAAGATGGAAGAAAGC
B6: S2M (dsDNA)
DNA 1: GGGCACAGAGGGTTTAATCA
DNA 2: TGATTAAACCCTCTGTGCCC
B7: S4M (dsDNA)
DNA 1: TGGTGCCGAGGGTTTTTTTC
DNA 2: GAAAAAAACCCTCGGCACCA
B8: S5M (dsDNA)
DNA 1: GCTTTCTTCGGGCTTGAAAA
DNA 2: TTTTCAAGCCCGAAGAAAGC
B9: S1 (dsDNA)
DNA 1: ATGATAAGCCATGATCACAC
DNA 2: GTGTGATCATGGCTTATCAT

Target: T1, His6-YY1 (UniProt P25490 1-414)
Experiment: EMSA

T1 sequence (P25490 whole entry): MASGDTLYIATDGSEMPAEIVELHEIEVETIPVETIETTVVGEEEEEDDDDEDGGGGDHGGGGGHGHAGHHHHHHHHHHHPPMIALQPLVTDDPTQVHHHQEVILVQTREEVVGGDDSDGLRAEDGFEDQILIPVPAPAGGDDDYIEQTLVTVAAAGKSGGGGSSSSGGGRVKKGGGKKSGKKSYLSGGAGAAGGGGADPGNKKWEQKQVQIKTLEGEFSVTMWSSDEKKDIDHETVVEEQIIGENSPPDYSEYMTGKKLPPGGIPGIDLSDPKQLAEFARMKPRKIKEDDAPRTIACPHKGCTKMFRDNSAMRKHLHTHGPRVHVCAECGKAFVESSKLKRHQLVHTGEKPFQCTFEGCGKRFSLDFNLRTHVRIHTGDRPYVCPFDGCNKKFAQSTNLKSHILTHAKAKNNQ

| Binder | binding result |
| --- | --- |
| B1 | binds |
| B2 | binds |

Target: T1, His6-YY1
Experiment: competition

| Binder | binding result |
| --- | --- |
| B3 | no binding |
| B4 | binds |
| B5 | binds |
| B6 | no binding |
| B7 | no binding |
| B8 | no binding |
| B9 | no binding |
